B1: C05 IgG (antibody, V domains shown)
VH: QVQLQESGGGLVQPGESLRLSCVGSGSSFGESTLSYYAVSWVRQAPGKGLEWLSIINAGGGDIDYADSVEGRFTISRDNSKETLYLQMTNLRVEDTGVYYCAKHMSMQQVVSAGWERADLVGDAFDVWGQGTMVTVSS
VL: DIQLTQSPSSLSASVGDRVTLTCQASQDIRKFLNWYQQKPGKGPKLLIYDASNLQRGVPSRFSGGGSGTDFTLIISSLQPEDVGTYYCQQYDGLPFTFGGGTKVVIK
B2: S139\1 IgG (antibody, V domains shown)
VH: QVQLQQSGTELKKPGASVKISCKATGYTFSSYWIEWIKQRPGHGLEWIGEILPEIGMTNYNENFKGKATFTANTSSNTVYMQLSSLTSEDSAVYYCARPYDYSWFAYWGQGTLVTVSA
VL: DIVMTQSQKFMSTSVGDRVSVTCKASQNVDTNVAWYQEKPGQSPKTLIYSASNRYSGVPDRFTGSASGTDFTLTITNVQSEDLAEYFCQQYNSYPYTFGGGTKLEIK

Biological target: hemagglutinin (HA) of A/WSN/1933 (H1N1) (Influenza A virus A/WSN/1933 (H1N1), UniProt I4EPC4)
Sequence (P03454 18-565): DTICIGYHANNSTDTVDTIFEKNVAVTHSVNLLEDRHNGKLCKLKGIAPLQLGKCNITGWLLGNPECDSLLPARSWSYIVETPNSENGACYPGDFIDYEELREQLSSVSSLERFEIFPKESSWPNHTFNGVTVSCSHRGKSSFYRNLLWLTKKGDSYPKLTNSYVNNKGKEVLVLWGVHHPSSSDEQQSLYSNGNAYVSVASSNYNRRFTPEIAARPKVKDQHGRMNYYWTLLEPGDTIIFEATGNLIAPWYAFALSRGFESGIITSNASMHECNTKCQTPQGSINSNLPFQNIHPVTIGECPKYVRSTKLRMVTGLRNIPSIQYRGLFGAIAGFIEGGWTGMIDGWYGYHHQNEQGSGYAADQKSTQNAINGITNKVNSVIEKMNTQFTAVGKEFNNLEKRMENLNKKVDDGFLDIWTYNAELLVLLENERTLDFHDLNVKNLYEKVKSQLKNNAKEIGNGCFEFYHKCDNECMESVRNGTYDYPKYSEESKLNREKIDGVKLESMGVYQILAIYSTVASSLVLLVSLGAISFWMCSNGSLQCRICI
Assay: virus aggregation by fluorescence microscopy

Binder	binding result
B1	binds
B2	binds

— publication PMC10441363 (bioRxiv, 2023)
